Results taken from patent publication US20240124528.

Columns and labels:
[1] = target: T1, IL-17RB ΔV403˜S416 (Del-3), HA-tagged
T1 chain: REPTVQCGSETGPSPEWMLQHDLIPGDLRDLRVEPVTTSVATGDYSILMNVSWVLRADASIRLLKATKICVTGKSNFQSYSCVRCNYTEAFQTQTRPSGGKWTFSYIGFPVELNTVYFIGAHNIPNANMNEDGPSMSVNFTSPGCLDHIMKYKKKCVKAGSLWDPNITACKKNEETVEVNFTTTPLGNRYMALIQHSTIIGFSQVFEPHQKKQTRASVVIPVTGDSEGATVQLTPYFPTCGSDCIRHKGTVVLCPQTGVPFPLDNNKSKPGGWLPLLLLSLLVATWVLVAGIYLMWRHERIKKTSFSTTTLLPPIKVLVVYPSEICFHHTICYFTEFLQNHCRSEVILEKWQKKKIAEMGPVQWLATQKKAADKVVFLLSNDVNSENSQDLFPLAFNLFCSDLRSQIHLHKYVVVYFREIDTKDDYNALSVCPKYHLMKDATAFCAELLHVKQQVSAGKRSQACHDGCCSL

[2] = target: T2, interleukin-17 receptor B (IL-17RB), human, endogenous in pancreatic cancer cells
T2 chain: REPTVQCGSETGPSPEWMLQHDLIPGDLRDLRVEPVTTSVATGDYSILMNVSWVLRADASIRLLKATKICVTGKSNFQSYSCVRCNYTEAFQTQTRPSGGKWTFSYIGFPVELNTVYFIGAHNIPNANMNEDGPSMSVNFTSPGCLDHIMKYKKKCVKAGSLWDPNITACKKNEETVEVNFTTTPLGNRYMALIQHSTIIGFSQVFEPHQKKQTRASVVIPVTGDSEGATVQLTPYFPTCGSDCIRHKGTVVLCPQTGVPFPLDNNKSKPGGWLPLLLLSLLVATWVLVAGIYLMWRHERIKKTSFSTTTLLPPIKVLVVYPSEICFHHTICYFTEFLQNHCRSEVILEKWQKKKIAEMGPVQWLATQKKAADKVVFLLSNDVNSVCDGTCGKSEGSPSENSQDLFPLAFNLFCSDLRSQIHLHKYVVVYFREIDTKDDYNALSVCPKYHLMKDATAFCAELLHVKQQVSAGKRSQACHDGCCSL

[3] = target: T3, IL-17RB-Flag (Flag-tagged IL-17RB, wild type)
T3 chain: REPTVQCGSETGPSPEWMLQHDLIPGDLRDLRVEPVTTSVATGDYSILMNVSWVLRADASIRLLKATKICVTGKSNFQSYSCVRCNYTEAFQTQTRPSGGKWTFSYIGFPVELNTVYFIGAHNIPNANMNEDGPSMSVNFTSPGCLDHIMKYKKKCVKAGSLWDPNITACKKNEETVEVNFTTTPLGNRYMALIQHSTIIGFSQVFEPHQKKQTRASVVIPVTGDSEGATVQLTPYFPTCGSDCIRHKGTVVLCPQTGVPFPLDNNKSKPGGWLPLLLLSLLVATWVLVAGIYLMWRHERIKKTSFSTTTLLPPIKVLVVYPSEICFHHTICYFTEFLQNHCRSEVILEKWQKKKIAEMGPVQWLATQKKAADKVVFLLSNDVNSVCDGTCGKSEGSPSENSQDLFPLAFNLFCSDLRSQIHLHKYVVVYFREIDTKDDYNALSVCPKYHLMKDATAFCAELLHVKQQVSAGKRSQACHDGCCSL

B1: mixed-lineage kinase 4 (MLK4), endogenous (protein)
chain: MALRGAAGATDTPVSSAGGAPGGSASSSSTSSGGSASAGAGLWAALYDYEARGEDELSLRRGQLVEVLSQDAAVSGDEGWWAGQVQRRLGIFPANYVAPCRPAASPAPPPSRPSSPVHVAFERLELKELIGAGGFGQVYRATWQGQEVAVKAARQDPEQDAAAAAESVRREARLFAMLRHPNIIELRGVCLQQPHLCLVLEFARGGALNRALAAANAAPDPRAPGPRRARRIPPHVLVNWAVQIARGMLYLHEEAFVPILHRDLKSSNILLLEKIEHDDICNKTLKITDFGLAREWHRTTKMSTAGTYAWMAPEVIKSSLFSKGSDIWSYGVLLWELLTGEVPYRGIDGLAVAYGVAVNKLTLPIPSTCPEPFAKLMKECWQQDPHIRPSFALILEQLTAIEGAVMTEMPQESFHSMQDDWKLEIQQMFDELRTKEKELRSREEELTRAALQQKSQEELLKRREQQLAEREIDVLERELNILIFQLNQEKPKVKKRKGKFKRSRLKLKDGHRISLPSDFQHKITVQASPNLDKRRSLNSSSSSPPSSPTMMPRLRAIQLTSDESNKTWGRNTVFRQEEFEDVKRNFKKKGCTWGPNSIQMKDRTDCKERIRPLSDGNSPWSTILIKNQKTMPLASLFVDQPGSCEEPKLSPDGLEHRKPKQIKLPSQAYIDLPLGKDAQRENPAEAESWEEAASANAATVSIEMTPTNSLSRSPQRKKTESALYGCTVLLASVALGLDLRELHKAQAAEEPLPKEEKKKREGIFQRASKSRRSASPPTSLPSTCGEASSPPSLPLSSALGILSTPSFSTKCLLQMDSEDPLVDSAPVTCDSEMLTPDFCPTAPGSGREPALMPRLDTDCSVSRNLPSSFLQQTCGNVPYCASSKHRPSHHRRTMSDGNPTPTGATIISATGASALPLCPSPAPHSHLPREVSPKKHSTVHIVPQRRPASLRSRSDLPQAYPQTAVSQLAQTACVVGRPGPHPTQFLAAKERTKSHVPSLLDADVEGQSRDYTVPLCRMRSKTSRPSIYELEKEFLS
[1]
  Y447 phosphorylation of IL-17RB (immunoblot with anti-P-Y447, FIG. 5D): Del-3 failed to bind to MLK4 and phosphorylate Y447
[2]
  IL-17RB phosphorylation at Y447 (immunoblot after MLK4 knockdown or knockout, FIG. 5A): either knockdown (left) or knockout (right) of MLK4 nearly completely abolished IL-17RB phosphorylation at Y447

B2: HA-TRIM56 (TRIM56-HA, HA-tagged tripartite-motif 56) (protein)
chain: MVSHGSSPSLLEALSSDFLACKICLEQLRAPKTLPCLHTYCQDCLAQLADGGRVRCPECRETVPVPPEGVASFKTNFFVNGLLDLVKARACGDLRAGKPACALCPLVGGTSTGGPATARCLDCADDLCQACADGHRCTRQTHTHRVVDLVGYRAGWYDEEARERQAAQCPQHPGEALRFLCQPCSQLLCRECRLDPHLDHPCLPLAEAVRARRPGLEGLLAGVDNNLVELEAARRVEKEALARLREQAARVGTQVEEAAEGVLRALLAQKQEVLGQLRAHVEAAEEAARERLAELEGREQVARAAAAFARRVLSLGREAEILSLEGAIAQRLRQLQGCPWAPGPAPCLLPQLELHPGLLDKNCHLLRLSFEEQQPQKDGGKDGAGTQGGEESQSRREDEPKTERQGGVQPQAGDGAQTPKEEKAQTTREEGAQTLEEDRAQTPHEDGGPQPHRGGRPNKKKKFKGRLKSISREPSPALGPNLDGSGLLPRPIFYCSFPTRMPGDKRSPRITGLCPFGPREILVADEQNRALKRFSLNGDYKGTVPVPEGCSPCSVAALQSAVAFSASARLYLINPNGEVQWRRALSLSQASHAVAALPSGDRVAVSVAGHVEVYNMEGSLATRFIPGGKASRGLRALVFLTTSPQGHFVGSDWQQNSVVICDGLGQVVGEYKGPGLHGCQPGSVSVDKKGYIFLTLREVNKVVILDPKGSLLGDFLTAYHGLEKPRVTTMVDGRYLVVSLSNGTIHIFRVRSPDS
[3]
  in vitro ubiquitination assay with recombinant E1, E2 and ubiquitin (FIG. 18D): purified TRIM56 could ubiquitinate IL-17RB at K470 in vitro
